These results are taken from publication PMC6614362.

Assay [1] deals with RsbR (Listeria monocytogenes stressosome component) (L. monocytogenes). Kind of assay: cryo-EM structure; stressosome assembled from purified RsbR, RsbS and RsbT with 1 mM ADP; 20 µg/ml on Quantifoil grids; maps at 4.48 Å (no symmetry) and 3.38 Å (icosahedral symmetry, turrets masked out).
Assay [2] has as its target RsbS (Listeria monocytogenes stressosome component) (L. monocytogenes). Kind of assay: SEC; purified RsbR and RsbS mixed, complex taken from Superose 6 void volume, combined with excess RsbT (4 °C, 4 h), Superose 6 in 20 mM Tris HCl pH 8.5, 150 mM NaCl, 1 mM ADP, 1 mM DTT; fractions analysed by SDS-PAGE. For orientation: Size exclusion chromatography separates by hydrodynamic size, large species first.

Assay [3] shares this target. Kind of assay: cryo-EM structure; stressosome assembled from purified RsbR, RsbS and RsbT with 1 mM ADP; 20 µg/ml on Quantifoil grids; maps at 4.48 Å (no symmetry) and 3.38 Å (icosahedral symmetry, turrets masked out).
Assay [4] concerns the target RsbR:RsbS complex (preformed, purified by gel filtration) (L. monocytogenes). The assay is described as follows: SEC; purified RsbR and RsbS mixed, complex taken from Superose 6 void volume, combined with excess RsbT (4 °C, 4 h), Superose 6 in 20 mM Tris HCl pH 8.5, 150 mM NaCl, 1 mM ADP, 1 mM DTT; fractions analysed by SDS-PAGE.

The stoichiometry N is a count of units in the complex or per binding partner. Take “RsbR (Listeria monocytogenes stressosome component) (natural protein)”: the stoichiometry N in assay [1] came out at 2. For the same substance, the stoichiometry N (RsbR per RsbS) in assay [2] was determined as 2.

“RsbS (Listeria monocytogenes stressosome component) (natural protein)” had a stoichiometry N in assay [3] of 2.

Turning to “RsbT (Listeria monocytogenes stressosome kinase) (enzyme)”, the stoichiometry N (RsbT per RsbS (RsbR:RsbS:RsbT 2:1:1)) in assay [4] was determined as 1.
